Measured values reported in US20100287625A1, “VEGF VARIANTS” (UNIVERSITE DE LIEGE, priority 2006, published 2010).

B1: VEGF121: known VEGF isoform, recombinant, produced in HEK293 cells (protein)
chain: APMAEGGGQNHHEVVKFMDVYQRSYCHPIETLVDIFQEYPDEIEYIFKPSCVPLMRCGGCCNDEGLECVPTEESNITMQIMRIKPHQGQHIGEMSFLQHNKCECRPKKDRARQEKCDKPRR
B2: VEGF111: new VEGF isoform lacking exons 5 to 7, SEQ ID NO:2; recombinant, produced in HEK293 cells (protein, listed as Homo sapiens)
chain: MNFLLSWVHWSLALLLYLHHAKWSQAAPMAEGGGQNHHEVVKFMDVYQRSYCHPIETLVDIFQEYPDEIEYIFKPSCVPLMRCGGCCNDEGLECVPTEESNITMQIMRIKPHQGQHIGEMSFLQHNKCECRPCGPCSERRKHLFVQDPQTCKCSCKNTDSRCKARQLELNERTCRCDKPRR
B3: rbVEGF165: commercially available recombinant VEGF165 produced in bacteria (protein)
chain: APMAEGGGQNHHEVVKFMDVYQRSYCHPIETLVDIFQEYPDEIEYIFKPSCVPLMRCGGCCNDEGLECVPTEESNITMQIMRIKPHQGQHIGEMSFLQHNKCECRPKKDRARQENPCGPCSERRKHLFVQDPQTCKCSCKNTDSRCKARQLELNERTCRCDKPRR

Tests used:
HUVEC [1] = assay: HUVEC proliferation (DNA measurement); assay type: cell-based, human; settings: 10 ng/ml, medium renewed every two days
Description: (§1) FIG. 4: VEGF111 is biologically active in vitro. A and B: VEGF111 activates VEGF-R2 (A) and ERK1/2 (B) in HUVEC. HUVEC were treated with HEK293 conditioned mediums containing VEGF111, VEGF121 or VEGF165, commercially available recombinant VEGF165 produced in bacteria (cVEGF) (20 ng/ml each) or fetal calf serum (FCS, 10%) for 5 minutes. Untreated cells (−) or cells treated with conditioned medium of control HEK293 cells (CM) served as control. Total and phosphorylated VEGF-R2 and ERK1/2 were measured by western blotting. C: VEGF111 promotes proliferation of HUVEC. HUVEC were treated with HEK293 conditioned mediums containing VEGF111(black circles), VEGF121 (open triangles) or VEGF165 (black triangles) (10 ng/ml) or conditioned medium from control HEK293 cells (open circles). The DNA was measured in triplicate wells harvested at increasing time of treatment. D: representative microphotograph of -embryoid bodies after immunofluorescent labeling of CD31 as marker of vasculature. Bar: […]. E: A number of microphotographs (of 6 embryoid bodies from 3 independent experiments for each treatment) were taken at random and analyzed by 5 investigators not aware of the treatments, and a score (from 0 to 3, where 0 indicates lack of vascular labeling, and 3 maximum labeling) was given to each sample. F: CD31 mRNA level was measured in embryoid bodies (10 samples in 3 independent experiment for each group) as described in Material and Methods. Statistical analysis was performed using the homoscedastic Student T test. *: p<0.05; **: p<0.01; ***: p<0.001
15000 HUVEC were seeded in gelatin-coated wells of 24 multiwells dishes in the presence of FCS. […] Cells were collected at various times and the DNA was measured by fluorimetry on a SpectraMax Gemini XS apparatus (Molecular Devices, England) after labeling with bis-benzimide. In some experiments, ^3H-thymidine (1 μM, 2.5 Ci/mol, NEN, Wellesley, Mass., USA) was added to cell cultures at day two and the trichloracetic acid-precipitable radioactivity was measured after 18 hours. […]

HUVEC [2] = assay: Mitogenic activity on HUVEC of VEGF pre-treated with plasmin or chronic wound fluids (3H-thymidine incorporation); assay type: cell-based, human; settings: summary statement, FIG. 6B, 7B
Description: (§2) Recombinant VEGF165, VEGF121 or VEGF111 were produced in HEK293 cells. […] The figure depicts the percentage of degradation of each VEGF by comparison with untreated samples.
(§3) FIG. 7: VEGF111 is resistant to degradation by fluids collected from chronic wound. A: Conditioned media containing 20 ng of recombinant VEGF as produced above were treated with chronic wound fluid collected in one patient (20 μl at 37° C.) for indicated times and analysed by western blotting using anti-VEGF antibodies. B: HUVEC were treated with recombinant VEGF111, VEGF121 or VEGF165 produced in HEK293 cells, or with commercially available VEGF165 or the carrier alone, untreated or treated with fluids from chronic wounds (20 μl at 37° C. for 24 hours), and cell multiplication was measured by incorporation of ^3H-thymidine.
15000 HUVEC were seeded in gelatin-coated wells of 24 multiwells dishes in the presence of FCS. After three hours, the medium was replaced by fresh medium containing or not VEGF and renewed every two days. Cells were collected at various times and the DNA was measured by fluorimetry on a SpectraMax Gemini XS apparatus (Molecular Devices, England) after labeling with bis-benzimide. In some experiments, ^3H-thymidine (1 μM, 2.5 Ci/mol, NEN, Wellesley, Mass., USA) was added to cell cultures at day two and the trichloracetic acid-precipitable radioactivity was measured after 18 hours.

plasmin = plasmin (Homo sapiens, UniProt P00747); assay: Degradation of recombinant VEGF by plasmin, western blotting; assay type: in vitro ADME; settings: 20 ng reVEGF, plasmin 0.04 to 0.32 units/ml, 4 hours
Description: as §2
To facilitate the analysis of the electrophoretic patterns they were further treated with PNGase as described above and the products of the reactions were analysed by western blotting. […] FIG. 6A depicts the percentage of degradation of each VEGF by comparison with untreated samples.

[3] = Degradation of recombinant VEGF by chronic wound fluid, western blotting; assay type: in vitro ADME; settings: for susceptibility to proteolytic degradation by plasmin and fluids from chronic ulcers: summary statement
Description: as §3
Conditioned media containing 20 ng of recombinant VEGF as produced above were treated with chronic wound fluid collected in one patient (20 μl at 37° C.) for indicated times and analysed by western blotting using anti-VEGF antibodies (FIG. 7A). […] FIG. 7B depicts the effect of treatment with chronic wound fluids on the mitogenic activity of the recombinants VEGF on HUVEC.

HUVEC [4] = assay: Intracellular calcium transients in HUVEC (Fluo3, confocal microscopy); assay type: cell-based, human; settings: conditioned medium with 10 ng VEGF, control medium about 15%
Description: HUVEC were plated for 18 hours in MCDB-131 medium containing 20% FCS in borosilicate culture chambers (Lab-Tek®, Nunc, Rochester N.Y.) coated with gelatin, rinsed with serum-free medium, incubated with the fluorophore Fluo3-AM (10 μM, Molecular Probes, Eugene, Oreg.) in serum-free medium for two hours and washed. The observation of the fluorescence emitted by the Fluo3-labeled cells started 5 minutes after the last washing. Microscope fields randomly selected were examined by a confocal microscope (Meridian, Akemos, Mich.). The Fluo3-loaded cells were excited by an Argon LASER at 488 nm and the emitted fluorescence recorded at 530 nm in each cell of the field by real time imaging. Image processing and data computing were performed using the Meridian software. The intensity of the emitted fluorescence was recorded every second during 4 minutes. As the overall fluorescence intensity varied from cell to cell, the level of fluorescence of each cell at the beginning of the recording was normalised to one arbitrary unit. The baseline of resting cells spontaneously oscillated by ±10% around the level of the first image acquisition. After a 20 second period of baseline recording, 10-20 μL of conditioned medium from HEK293 cells expressing or not VEGF111, VEGF121 or VEGF165 (10 ng) were added gently on the cells under microscopic examination. A 20% rise above the baseline was considered as a significant calcium rise and the cell regarded as responsive. The results were expressed as the percentage of responding cells.
The induction of calcium transients by the various reVEGFs was investigated on HUVEC by real-time fluorescent microscopy as described. As the calcium concentration in resting cells spontaneously varied by about 10% around the baseline, cells were defined as responsive when the treatments induced a peak of calcium at least 20% above the baseline. HUVEC were treated with conditioned mediums from control HEK293 cells or cells expressing VEGF111, VEGF121 and VEGF165.

ERK1/2 = assay: Activation of ERK1/2 signalling in HUVEC, western blotting; assay type: cell-based, human; settings: HUVEC starved overnight, treated 5 min
Description: as §1
The proteins were migrated onto polyacrylamide gels and transferred onto PVDF transfer membranes (NEN, Boston, Mass.) by electroblotting. The membranes were blocked by non-fat dry milk (3% in PBS-tween buffer) and probed with first and horseradish peroxidase-conjugated secondary antibodies. Signals were detected by chemiluminescence using a ECL Western Blotting Analysis system (Amersham, Little Chalfont, England) and X-ray film exposure and quantified using a Fluor-S MultiImager (BioRad, Hercules, Calif.).
VEGF induces a number of effects in endothelial cells, including autophosphorylation of its receptors, activation of the ERK1/2 MAPkinases pathways, induction of calcium transients and increased proliferation. The in vitro effects of recombinants VEGFs on HUVEC were compared. HUVEC were starved overnight and treated for five min. with reVEGFs. […] Conditioned medium from HEK293 cells transfected with the empty vector had no effect. To further confirm the biological activity of VEGF111 the activation of ERK1/2 signalling pathways was investigated by western blotting using monoclonal phospho-specific antibodies. HUVEC were starved overnight and treated with the three reVEGF isoforms, as well as rbVEGF165, for 5 min. […]

[5] = test system: recombinant VEGF111 produced in HEK293 cells
[6] = molecular target: recombinant VEGF165 produced in HEK293 cells (UniProt P15692)
[7] = molecular target: recombinant VEGF121 produced in HEK293 cells (UniProt P15692)

plasmin (Homo sapiens, UniProt P00747), sequence (P00747 581-810 limits assumed, species assumed): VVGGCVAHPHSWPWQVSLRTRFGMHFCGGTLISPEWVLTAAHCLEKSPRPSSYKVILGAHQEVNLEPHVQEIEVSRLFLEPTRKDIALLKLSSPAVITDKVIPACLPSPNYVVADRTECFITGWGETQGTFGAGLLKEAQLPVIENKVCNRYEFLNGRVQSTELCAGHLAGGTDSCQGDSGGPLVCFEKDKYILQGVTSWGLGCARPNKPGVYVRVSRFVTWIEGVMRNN
plasmin (Homo sapiens, UniProt P00747), sequence (P00747 97-580 partner limits assumed, species assumed): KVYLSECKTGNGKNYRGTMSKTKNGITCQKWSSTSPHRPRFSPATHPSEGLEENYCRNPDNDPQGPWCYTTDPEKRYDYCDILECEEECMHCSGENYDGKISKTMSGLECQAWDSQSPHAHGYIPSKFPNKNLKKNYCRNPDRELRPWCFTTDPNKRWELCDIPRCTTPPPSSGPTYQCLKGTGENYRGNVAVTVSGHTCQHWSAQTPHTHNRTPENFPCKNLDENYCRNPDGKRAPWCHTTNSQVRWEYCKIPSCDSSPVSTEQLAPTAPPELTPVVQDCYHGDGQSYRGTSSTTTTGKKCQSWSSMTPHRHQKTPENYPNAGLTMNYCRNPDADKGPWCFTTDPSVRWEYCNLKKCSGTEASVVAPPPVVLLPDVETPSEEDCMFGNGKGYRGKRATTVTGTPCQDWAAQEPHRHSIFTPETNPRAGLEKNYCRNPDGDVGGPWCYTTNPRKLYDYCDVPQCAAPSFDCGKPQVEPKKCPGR

Row | Molecule | increase of proliferation rate as compared to control conditioned medium (HUVEC [1]) [fold] | effect of treatment by plasmin or fluids from non-healing wounds on the activity of the VEGF (HUVEC [2]) | degradation by plasmin (western blotting) (plasmin) | susceptibility to proteolytic degradation by plasmin and fluids from chronic ulcers [3] | percentage of responding cells (calcium transients, peak at least 20% above baseline) (HUVEC [4]) [%] | phosphorylation of ERK1/2 (ERK1/2) | dose of plasmin that cleaves VEGF by 50% [5] | dose of plasmin that cleaves VEGF by 50% [6] | dose of plasmin that cleaves VEGF by 50% [7] | dose of plasmin that cleaves VEGF by 50% (plasmin; 37° C.) | degradation by chronic wound fluid ([3]; 20 ng VEGF, 20 μl wound fluid of one patient, 37° C., after 24 hrs)
1 | VEGF165: known VEGF isoform, recombinant, produced in HEK293 cells [reference compound] | 2.5 | reduces or suppresses | progressively degraded | susceptible | 70 | induced |  |  |  |  | 
2 | plasmin |  |  |  |  |  |  | above 0.32 U/ml for VEGF111 | comprised between 0.05 and 0.07 U/ml for VEGF165 and VEGF121 | comprised between 0.05 and 0.07 U/ml for VEGF165 and VEGF121 |  | 
3 | B1 | 2 | reduces or suppresses | progressively degraded | susceptible | 70 | induced |  |  |  |  | 
4 | B2 | 2 | does not affect | unaffected |  | 70 | induced |  |  |  | above 0.32 U/ml | no detectable degradation
5 | B3 |  |  |  |  |  | induced |  |  |  |  | 
